According to patent publication EP0762881B1:

Biological target: anti-dnaJ antibodies in sera obtained from patients with early stage RA
Test: inhibition ELISA; rdnaJ-coated plates, sera 1:100 preincubated with the peptide, goat anti-human IgG detection

B1: wild-type dnaJ peptide … (peptide)
peptide: QKRAAYDQYGHAAFE
B1 showed an inhibition of antibody binding to rdnaJ, fold against control sera of 3 fold.
